Experimental data: US20240010753A1 (EPIMAB BIOTHERAPEUTICS HK, published 2024)
Residue numbers refer to the chain shown, from its start. Each block holds one binder with its values, some of them ahead of it.

What was measured:
human ROR1 on cells = target: T1, human ROR1 on cells (human, UniProt Q01973 30-937); assay: flow cytometry on MDA-MB-231 cells, MFI
T1 construct: whole, on cells; the cell line is named under assay; also called CHO-ROR1; CHOK1-ROR1

[1] = target: T2, recombinant human ROR1-ECD protein (human, UniProt Q01973 30-406); assay: competition ELISA: biotinylated ROR1-ECD pre-mixed with the row's antibody; competitor coated on the plate: ROR1-mAb004
T2 construct: also called human ROR1 extracellular domain
Procedure: (§1) The binding epitope of ROR1 antibodies were identified with a competition ELISA. Briefly, 96 well plates were coated with 1 ug/mL purified antibodies and incubated overnight at 4° C. After washing with PBS containing 0.05% Tween 20, plates were blocked with blocking buffer (PBS containing 0.05% Tween 20 and 2% BSA) at 37° C. for 2 hours. Biotinylated human ROR1-ECD protein pre-mixed with ROR1 antibody (sample) or irrelevant mouse IgG (baseline) was added into plate wells and incubated at 37° C. for 1 hour before being washed 3 times. Streptavidin-HRP (1:5000 dilution) was then added into each well and incubated at 37° C. for 1 hour before being washed another 3 times. Tetramethylbenzidine (TMB) chromogenic solution was added for color development for 5 minutes then the reaction was stopped with 1M HCl. Absorbance at 450 nm (OD₄₅₀) was measured on a microplate reader. The OD450baseline represents the level of human ROR1-ECD binding to ROR1 antibodies at absence of competition, while the difference between OD450baseline and OD450ₛₐₘₚₗₑ reflects the competition between the ROR1 antibody coated on plate and the antibody in solution. The inhibition percentage was calculated by following equation: […]

[2] = target: T2, recombinant human ROR1-ECD protein; assay: BLI (Octet RED96), antibody captured on anti-mouse IgG Fc sensors, ROR1-ECD in solution, 25 C, 1:1 fit
Procedure: Briefly, Anti-Mouse IgG Fc Capture (AMC) Biosensors were used to capture purified anti-ROR1 antibodies. Sensors were then dipped into solutions containing recombinant human ROR1-ECD protein to detect target protein binding to the captured antibodies. Kinetics constants were determined by processing and fitting data to a 1:1 binding model using Fortebio analysis software. Shown below in Table 2 are the results obtained for ROR1-mAb004 in comparison with two previously described anti-ROR1 monoclonal antibodies, ROR1-Tab1 is clone R12 as described in WO2014167022, and ROR1-Tab2 is clone D10 as described in WO2012097313.

[3] = target: T2, recombinant human ROR1-ECD protein; assay: competition ELISA: biotinylated ROR1-ECD pre-mixed with the row's antibody; competitor coated on the plate: ROR1-Tab2
Procedure: as §1

[4] = target: T2, recombinant human ROR1-ECD protein; assay: competition ELISA: biotinylated ROR1-ECD pre-mixed with the row's antibody; competitor coated on the plate: ROR1-Tab1
Procedure: as §1

[5] = target: T2, recombinant human ROR1-ECD protein; assay: BLI (Octet RED96), FIT-Ig captured on anti-hIgG Fc sensors, ROR1 ECD at 10 ug/ml; off-rate relative to FIT1007-12B
Procedure: The ROR1/CD3 FIT-Ig proteins were assayed for and ranked by dissociation rate constant (koff, “off-rate”) using an Octet®RED96 biolayer interferometry (Pall FortéBio LLC). Anti-hIgG Fc Capture (AHC) Biosensors (Pall) were first exposed to antibody at a concentration of 100 nM for 30 seconds to capture antibody, then dipped into running buffer (1× pH 7.2 PBS, 0.05% Tween 20, 0.1% BSA) for 60 seconds to check baseline. Sensors with captured antibody were dipped into recombinant human ROR1 ECD protein at 10 ug/ml for 5 minutes to measure association, followed by dipped into running buffer for 1200 seconds to measure dissociation. The association and dissociation curves were fitted to a 1:1 Langmuir binding model using ForteBio Data Analysis software (Pall). The off-rate ratios were calculated by the off-rate of antibody to that of FIT1007-12B. Lower ratio indicates slower dissociation of the antibody in comparison with the parental chimeric antibody FIT1007-12B.

human CD3 on cells = target: T3, human CD3 on cells (human, UniProt P07766 23-207; P04234 22-171; P09693 23-182; P20963 22-164); assay: flow cytometry on CHO-CD3-TCR cells, MFI
T3 construct: the cell line is named under assay; also called human TCR/CD3 complex; CHO-CD3-TCR
Procedure: Briefly, 5×10⁵ cells were seeded into each well of a 96-well plate. Cells were centrifuged at 400 g for 5 minutes and supernatants were discarded. For each well, […] of serially diluted antibodies were then added and mixed with the cells. After 40 minutes of incubation at 4° C., plates were washed several times to remove excess antibodies. Secondary fluorochrome-conjugated goat anti-human IgG antibody was then added and incubated with cells at room temperature for 20 minutes. After another round of centrifugation and a washing step, cells were resuspended in FACS buffer for reading on a CytoFLEX Flow Cytometer (Beckman Coulter). Median Fluorescence Intensity (MFI) readouts were plotted against antibody concentration and analyzed with GraphPad Prism 6.0 software.

T2 sequence (Q01973 30-406): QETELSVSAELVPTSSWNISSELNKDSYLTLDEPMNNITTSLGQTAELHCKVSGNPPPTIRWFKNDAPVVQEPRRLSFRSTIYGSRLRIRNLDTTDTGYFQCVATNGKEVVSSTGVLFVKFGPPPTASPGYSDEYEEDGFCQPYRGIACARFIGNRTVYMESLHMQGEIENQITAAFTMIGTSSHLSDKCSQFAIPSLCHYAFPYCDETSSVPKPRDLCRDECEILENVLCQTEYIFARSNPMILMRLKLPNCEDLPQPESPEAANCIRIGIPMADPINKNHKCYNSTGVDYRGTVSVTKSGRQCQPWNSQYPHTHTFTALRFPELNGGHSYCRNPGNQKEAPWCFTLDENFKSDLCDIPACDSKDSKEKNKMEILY
T1 sequence (Q01973 30-937): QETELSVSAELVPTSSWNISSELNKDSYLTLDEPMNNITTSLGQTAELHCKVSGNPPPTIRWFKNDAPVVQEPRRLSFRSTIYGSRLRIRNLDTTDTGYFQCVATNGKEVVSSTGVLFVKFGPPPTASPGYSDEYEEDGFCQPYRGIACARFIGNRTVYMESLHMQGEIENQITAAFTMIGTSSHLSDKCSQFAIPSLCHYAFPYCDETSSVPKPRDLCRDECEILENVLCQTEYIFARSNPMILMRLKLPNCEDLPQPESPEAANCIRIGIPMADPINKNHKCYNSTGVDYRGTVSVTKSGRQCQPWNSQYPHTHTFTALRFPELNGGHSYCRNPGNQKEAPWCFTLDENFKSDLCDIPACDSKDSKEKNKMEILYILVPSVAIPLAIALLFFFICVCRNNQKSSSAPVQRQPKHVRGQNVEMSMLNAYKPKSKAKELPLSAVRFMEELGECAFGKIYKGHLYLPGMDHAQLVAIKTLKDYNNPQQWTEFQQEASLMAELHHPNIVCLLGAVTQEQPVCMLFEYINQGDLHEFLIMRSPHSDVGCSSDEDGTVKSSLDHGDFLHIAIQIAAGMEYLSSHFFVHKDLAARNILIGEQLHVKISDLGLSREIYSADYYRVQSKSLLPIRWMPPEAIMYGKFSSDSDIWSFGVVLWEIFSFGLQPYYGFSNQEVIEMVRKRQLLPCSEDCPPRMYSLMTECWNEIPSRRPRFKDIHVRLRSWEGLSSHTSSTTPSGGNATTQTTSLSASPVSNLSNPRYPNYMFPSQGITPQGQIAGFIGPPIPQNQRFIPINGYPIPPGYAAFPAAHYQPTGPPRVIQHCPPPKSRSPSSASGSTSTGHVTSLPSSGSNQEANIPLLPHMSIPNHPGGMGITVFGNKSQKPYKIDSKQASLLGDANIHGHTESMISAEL
T3 sequence (P07766 23-207 limits assumed, chain 1 of 4): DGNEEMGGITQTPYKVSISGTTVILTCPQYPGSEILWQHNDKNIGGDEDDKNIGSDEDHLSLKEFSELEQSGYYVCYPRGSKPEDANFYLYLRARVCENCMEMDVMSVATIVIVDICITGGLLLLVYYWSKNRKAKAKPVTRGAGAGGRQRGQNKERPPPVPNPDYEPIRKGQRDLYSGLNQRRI
T3 sequence (P04234 22-171 limits assumed, chain 2 of 4): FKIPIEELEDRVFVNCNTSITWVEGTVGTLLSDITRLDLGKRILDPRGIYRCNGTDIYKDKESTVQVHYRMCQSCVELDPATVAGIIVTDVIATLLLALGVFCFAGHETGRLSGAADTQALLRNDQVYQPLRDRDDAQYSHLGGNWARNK
T3 sequence (P09693 23-182 limits assumed, chain 3 of 4): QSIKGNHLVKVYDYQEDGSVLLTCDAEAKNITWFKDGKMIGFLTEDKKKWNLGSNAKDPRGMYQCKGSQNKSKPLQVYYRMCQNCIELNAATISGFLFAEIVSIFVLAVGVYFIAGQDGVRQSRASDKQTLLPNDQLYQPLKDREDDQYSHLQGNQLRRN
T3 sequence (P20963 22-164 limits assumed, chain 4 of 4): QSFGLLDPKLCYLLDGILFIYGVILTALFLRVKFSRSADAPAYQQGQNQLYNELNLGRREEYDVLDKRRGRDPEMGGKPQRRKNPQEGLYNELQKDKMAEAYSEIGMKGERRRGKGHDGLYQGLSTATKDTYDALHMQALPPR

B1: R12 x CD3 FIT-Ig (bispecific antibody, human IgG1, kappa, lambda, L234A L235A)
chain 1: not shown
chain 2: QEQLVESGGRLVTPGGSLTLSCKASGFDFSAYYMSWVRQAPGKGLEWIATIYPSSGKTYYATWVNGRFTISSDNAQNTVDLQMNSLTAADRATYFCARDSYADDGALFNIWGPGTLVTISSASTKGPSVFPLAPSSKSTSGGTAALGCLVKDYFPEPVTVSWNSGALTSGVHTFPAVLQSSGLYSLSSVVTVPSSSLGTQTYICNVNHKPSNTKVDKKVEPKSC
chain 3: not shown
EC50 (read off the curve) (human ROR1 on cells): ~0.4 nM

B3: FIT1007-12B-13 (bispecific antibody, human IgG1, kappa, L234A L235A)
chain 1: not shown
chain 2: QVQLQQSGPELVKPGASVKISCKASGYAFSRSWMNWVKQRPEKGLEWIGRIYPGNADIKYNANFKGKATLTADKSSSTAYMQLSSLTSEDSAVYFCAHIYYDFYYALDYWGQGTSVTVSSASTKGPSVFPLAPSSKSTSGGTAALGCLVKDYFPEPVTVSWNSGALTSGVHTFPAVLQSSGLYSLSSVVTVPSSSLGTQTYICNVNHKPSNTKVDKKVEPKSC
chain 3: not shown
notes: Chimeric ROR1 arm with CDR-H2 point mutations (AA); ROR1xCD3 FIT-Ig, no linkers
Off-rate Ratio [5]: 89.1%

B5: FIT1007-12B-5 (bispecific antibody, human IgG1, kappa, L234A L235A)
chain 1: not shown
chain 2: EVQLVQSGAEVKKPGSSVKVSCKASGYTFSRSWMNWVRQAPGQGLEWIGRIYPGNGDIKYNGNFKGRATITADKSTSTAYMELSSLRSEDTAVYYCAHIYYDFYYALDYWGQGTTVTVSSASTKGPSVFPLAPSSKSTSGGTAALGCLVKDYFPEPVTVSWNSGALTSGVHTFPAVLQSSGLYSLSSVVTVPSSSLGTQTYICNVNHKPSNTKVDKKVEPKSC
chain 3: not shown
notes: ROR1xCD3 FIT-Ig, same build as FIT1007-12B-1, no linkers
Off-rate Ratio [5]: 28.5%

B10: FIT1007-12B-3 (bispecific antibody, human IgG1, kappa, L234A L235A)
chain 1: not shown
chain 2: B5 chain 2 with R38K, R67K
chain 3: not shown
notes: as for B5
Off-rate Ratio [5]: 11.9%

B15: FIT1007-12B-2 (bispecific antibody, human IgG1, kappa, L234A L235A)
chain 1: not shown
chain 2: B5 chain 2
chain 3: not shown
notes: as for B5
Off-rate Ratio [5]: 7.87%

B16: FIT1007-12B-1 (bispecific antibody, human IgG1, kappa, L234A L235A)
chain 1: not shown
chain 2: B5 chain 2 with I48M, A68V
chain 3: not shown
notes: ROR1xCD3 FIT-Ig, chain #1 VL(ROR1)-CL-VH(CD3)-CH1-hinge-CH2-CH3, chain #2 VH(ROR1)-CH1, chain #3 VL(CD3)-CL, no linkers
Off-rate Ratio [5]: 5.25%

B17: D10 x CD3 FIT-Ig (bispecific antibody, human IgG1, kappa, L234A L235A)
chain 1: not shown
chain 2: QVQLKESGPGLVAPSQTLSITCTVSGFSLTSYGVHWVRQPPGKGLEWLGVIWAGGFTNYNSALKSRLSISKDNSKSQVLLKMTSLQTDDTAMYYCARRGSSYSMDYWGQGTSVTVSSASTKGPSVFPLAPSSKSTSGGTAALGCLVKDYFPEPVTVSWNSGALTSGVHTFPAVLQSSGLYSLSSVVTVPSSSLGTQTYICNVNHKPSNTKVDKKVEPKSC
chain 3: not shown
EC50 (read off the curve) (human ROR1 on cells): ~0.5 nM

B18: HuEM0006-01-24 (antibody, V domains shown)
VH: EVQLVQSGAEVKKPGASVKVSCKASGFSFTNYYVHWMRQAPGQGLEWMGWISPGSDNTKYNEKFKGRVTMTRDTSISTAYMELSRLRSDDTAVYYCARDDYGNYYFDYWGQGTTVTVSS
VL: DIVMTQSPDSLAVSLGERATINCKSSQSLLNARTRKNYLAWYQQKPGQPPKLLIYWASTRESGVPDRFSGSGSGTDFTLTISSLQAEDVAVYYCKQSYILRTFGGGTKVEIK
notes: only the variable domains are tied to it; also called HuEM1006-01-24
EC50 (read off the curve) (human CD3 on cells): ~0.3 nM

Continued, values first:

Inhibition % [1]: 56% | Kd [2]: 98.8 nM | koff [2]: 0.0321 s⁻¹ | kon [2]: 325000 M⁻¹ s⁻¹ | Inhibition % [3]: 92% | Inhibition % [4]: -21%
B2: ROR1-Tab2 (antibody, V domains shown)
VH: QVQLKESGPGLVAPSQTLSITCTVSGFSLTSYGVHWVRQPPGKGLEWLGVIWAGGFTNYNSALKSRLSISKDNSKSQVLLKMTSLQTDDTAMYYCARRGSSYSMDYWGQGTSVTVSS
VL: EIVLSQSPAITAASLGQKVTITCSASSNVSYIHWYQQRSGTSPRPWIYEISKLASGVPVRFSGSGSGTSYSLTISSMEAEDAAIYYCQQWNYPLITFGSGTKLEIQ
notes: also called clone D10; D10 as described in WO2012097313

Off-rate Ratio [5]: 139%
B4: FIT1007-12B-16 (bispecific antibody, human IgG1, kappa, L234A L235A)
chain 1: not shown
chain 2: B3 chain 2 with N55Q, A56G
chain 3: not shown
notes: Chimeric ROR1 arm with CDR-H2 point mutations (QA); ROR1xCD3 FIT-Ig, no linkers

Off-rate Ratio [5]: 36.7%
B6: FIT1007-12B-10 (bispecific antibody, human IgG1, kappa, L234A L235A)
chain 1: not shown
chain 2: B5 chain 2 with I48M, A68V
chain 3: not shown
notes: as for B5

Off-rate Ratio [5]: 35.9%
B7: FIT1007-12B-4 (bispecific antibody, human IgG1, kappa, L234A L235A)
chain 1: not shown
chain 2: B5 chain 2 with I48M, A68V
chain 3: not shown
notes: as for B5

Off-rate Ratio [5]: 12%
B8: FIT1007-12B-9 (bispecific antibody, human IgG1, kappa, L234A L235A)
chain 1: not shown
chain 2: B5 chain 2 with R38K, R67K
chain 3: not shown
notes: as for B5

Off-rate Ratio [5]: 25.8%
B9: FIT1007-12B-6 (bispecific antibody, human IgG1, kappa, L234A L235A)
chain 1: not shown
chain 2: B5 chain 2 with R38K, R67K
chain 3: not shown
notes: as for B5

Off-rate Ratio [5]: 13.6%
B11: FIT1007-12B-7 (bispecific antibody, human IgG1, kappa, L234A L235A)
chain 1: not shown
chain 2: B5 chain 2 with I48M, A68V
chain 3: not shown
notes: as for B5

Off-rate Ratio [5]: 28.9%
B12: FIT1007-12B-11 (bispecific antibody, human IgG1, kappa, L234A L235A)
chain 1: not shown
chain 2: B5 chain 2
chain 3: not shown
notes: as for B5

Off-rate Ratio [5]: 25.2%
B13: FIT1007-12B-12 (bispecific antibody, human IgG1, kappa, L234A L235A)
chain 1: not shown
chain 2: B5 chain 2 with R38K, R67K
chain 3: not shown
notes: as for B5

Off-rate Ratio [5]: 15.4%
B14: FIT1007-12B-8 (bispecific antibody, human IgG1, kappa, L234A L235A)
chain 1: not shown
chain 2: B5 chain 2
chain 3: not shown
notes: as for B5

EC50 (read off the curve) (human CD3 on cells): ~2 nM
B19: HuEM0006-01-27 (antibody, V domains shown)
VH: B18 VH with M48I, M70L, R72A
VL: B18 VL
notes: only the variable domains are tied to it; also called HuEM1006-01-27
